In this assay the target is Cynomolgus MSLN (cynomolgus macaque).

B1: VH 3C9 (human antibody heavy chain variable domain) (VHH)
VHH: DVQLVESGGGVVQPGRSLRLSCAASGFTFSSYAMHWVRQAPGKGLEWVSSISGNSLYKYYADSVKGRFTISRDDSTNTLYLQMNSLRAEDTATYYCTRHWAVGNWGQGTLVTVSS
By Kd is commonly meant the free concentration of one partner at which half of the binding sites on the other are occupied at equilibrium, for simple one-to-one binding. Higher therefore signals a looser complex. Molecule B1 came in with a dissociation constant Kd above 100 nM.

The record behind these values is article PMC10522976.
